This note sets out measurements from patent US20180289802A1 (CELGENE, published 2018).

Sequences and labels used below:
B1: PD1AB-1 (antibody, V domains shown)
VH: EVQLVQSGAEVKKPGATVKISCKVSGFNIKDTYMHWVQQAPGKGLEWMGRIDPANGDRKYDPKFQGRVTITADTSTDTAYMELSSLRSEDTAVYYCARSGPVYYYGSSYVMDYWGQGTTVTVSS
VL: DIVMTQSPDSLAVSLGERATINCKSGQSVLYSSNQKNFLAWYQQKPGQPPKLLIYWASTRESGVPDRFSGSGSGTDFTLTISSLQAEDVAVYYCHQYLYSWTFGQGTKLEIKR
notes: also called parental clone PD1AB-1; HC/LC TOPO vector 3015/3017
B2: PD1AB-6 (antibody, IgG1, V domains shown)
VH: B1 VH with V24A
VL: B1 VL
notes: also called HC/LC TOPO vector 3650/3017
B3: PD1AB-3 (antibody, V domains shown)
VH: B1 VH with D77N
VL: B1 VL with S83N
notes: also called HC/LC TOPO vector 3653/3646
B4: PD1AB-5 (antibody, V domains shown)
VH: B1 VH with V24A
VL: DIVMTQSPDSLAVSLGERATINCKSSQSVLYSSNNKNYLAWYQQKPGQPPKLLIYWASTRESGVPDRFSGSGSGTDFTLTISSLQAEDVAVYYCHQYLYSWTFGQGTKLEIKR
notes: also called HC/LC TOPO vector 3650/3193
B5: PD1AB-2 (antibody, V domains shown)
VH: B1 VH
VL: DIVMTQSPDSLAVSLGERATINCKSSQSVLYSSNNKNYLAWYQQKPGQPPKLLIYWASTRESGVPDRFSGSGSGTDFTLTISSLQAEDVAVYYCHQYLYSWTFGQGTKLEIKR
notes: also called HC/LC TOPO vector 3015/3193
B6: PD1AB-4 (antibody, V domains shown)
VH: B1 VH with D77N
VL: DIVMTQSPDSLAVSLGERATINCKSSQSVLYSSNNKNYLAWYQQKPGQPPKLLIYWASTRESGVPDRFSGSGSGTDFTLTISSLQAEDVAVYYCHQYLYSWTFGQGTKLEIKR
notes: also called HC/LC TOPO vector 3653/3193

Numbering of substitutions follows the chain as printed.

By Kd is commonly meant the constant that tells how readily two partners part at equilibrium. A lower Kd goes with tighter binding. A word on the IC50: it is the concentration that inhibits the measured activity by half.

T3 sequence (Q15116 25-198 limits assumed): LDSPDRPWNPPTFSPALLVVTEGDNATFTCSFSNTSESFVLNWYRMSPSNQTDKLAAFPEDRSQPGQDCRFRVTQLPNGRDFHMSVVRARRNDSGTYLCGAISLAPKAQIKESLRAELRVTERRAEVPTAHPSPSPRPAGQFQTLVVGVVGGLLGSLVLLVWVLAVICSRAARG

For the first experiment, the target named is T1, human PD-1 (soluble / purified antigen, construct not stated) (human, UniProt Q15116 25-170, limits assumed).
T1 construct: also called soluble antigen
T1 sequence (Q15116 25-170 limits assumed): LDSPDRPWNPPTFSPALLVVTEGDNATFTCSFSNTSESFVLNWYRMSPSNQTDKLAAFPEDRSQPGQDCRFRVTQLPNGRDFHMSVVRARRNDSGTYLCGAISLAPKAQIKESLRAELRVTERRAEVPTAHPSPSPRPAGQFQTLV
Kind of experiment: Biacore (SPR), n = 4; Biacore, n = 4 (not KinExA 575 pM). (SPR reads the build-up and loss of mass on a sensor chip optically.)
The molecule B1 returned a Kd of 5 nM.

Another experiment concerns the target T1, human PD-1 (soluble / purified antigen, …). Kind of experiment: KinExA, n = 1.
As to B2, binding was characterised by a dissociation constant (Kd) of 0.45 nM.

B3 had a Kd of 0.35 nM.

Molecule B4 gave an equilibrium dissociation constant (Kd) of 0.4 nM.

On to B5, for which the equilibrium dissociation constant (Kd) amounted to 0.425 nM.

Molecule B6 came in with a Kd of 0.5 nM.

The next experiment has the same target. Kind of experiment: Biacore (SPR), n = 2.
B2: the Kd was found to be 6 nM.

B3 displayed a Kd of 7 nM.

As to B4, the Kd is 6 nM.

B5: the Kd amounted to 5 nM.

B6 displayed a dissociation constant (Kd) of 6 nM.

A further experiment addresses T2, murine PD-1 (mouse, UniProt Q02242 25-167, limits assumed).
T2 construct: also called mouse PD-1
T2 sequence (looked up): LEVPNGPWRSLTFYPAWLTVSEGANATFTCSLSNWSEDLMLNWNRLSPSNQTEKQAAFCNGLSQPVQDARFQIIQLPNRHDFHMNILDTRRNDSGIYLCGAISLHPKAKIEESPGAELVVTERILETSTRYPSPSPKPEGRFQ
The experiment in a line: assay not described; stated in the discussion of the crystal structure.
For B2, the binding result is recorded as “no binding”.

A further experiment has as its target T3, human PD-1 expressed on cells (human, UniProt Q15116 25-198). Kind of experiment: cell-based or functional assay.
As to B1, the “CD4+ T cell IL-2 inhibition (EC50)” value is 22 nM.

Take B2: the “CD4+ T cell IL-2 inhibition (EC50)” value came to 16 nM.

In the case of B3, the “CD4+ T cell IL-2 inhibition (EC50)” value was found to be 21 nM.

In the case of B4, the “CD4+ T cell IL-2 inhibition (EC50)” value turned out to be 15 nM.

On to B5, for which the “CD4+ T cell IL-2 inhibition (EC50)” value came out at 27 nM.

Regarding B6, the “CD4+ T cell IL-2 inhibition (EC50)” value worked out at 23 nM.

For the next experiment, the target named is T1, human PD-1 (soluble / purified antigen, …). The experiment in a line: KinExA, n = 2. In general terms: A kinetic exclusion assay measures how much of one partner remains free in solution.
For B1, the dissociation constant Kd turned out to be 0.575 nM.

The target in the next experiment is T3, human PD-1 expressed on cells. Kind of experiment: cell-based or functional assay. This is another data set of the same source.
Take B1: the “IFN-γ EC50, PBMC reactivation assay” value came out at 46 nM; the “IFN-γ EC75, PBMC reactivation assay” value stood at 85 nM; the “IL-2 EC50, PBMC reactivation assay” value was 21 nM; the “IL-2 EC75, PBMC reactivation assay” value was 40 nM. Further, the “IL-17 EC50, PBMC reactivation assay” value came out at 41 nM and the “IL-17 EC75, PBMC reactivation assay” value was 65 nM.

Take B2: the “IFN-γ EC50, PBMC reactivation assay” value was found to be 36 nM; the “IFN-γ EC75, PBMC reactivation assay” value is 67 nM; the “IL-2 EC50, PBMC reactivation assay” value came to 24 nM; the “IL-2 EC75, PBMC reactivation assay” value worked out at 33 nM. The “IL-17 EC50, PBMC reactivation assay” value is 37 nM and the “IL-17 EC75, PBMC reactivation assay” value came out at 56 nM.

For B3, the “IL-2 EC50, PBMC reactivation assay” value turned out to be 24 nM and the “IL-2 EC75, PBMC reactivation assay” value was 46 nM.

Take B4: the “IL-2 EC50, PBMC reactivation assay” value was determined as 36 nM and the “IL-2 EC75, PBMC reactivation assay” value worked out at 58 nM.

Consider B5, for which the “IFN-γ EC50, PBMC reactivation assay” value amounted to 58 nM; the “IFN-γ EC75, PBMC reactivation assay” value worked out at 91 nM; the “IL-2 EC50, PBMC reactivation assay” value worked out at 24 nM; the “IL-2 EC75, PBMC reactivation assay” value was found to be 42 nM. For the same molecule, the “IL-17 EC50, PBMC reactivation assay” value came out at 36 nM and the “IL-17 EC75, PBMC reactivation assay” value came out at 59 nM.

For B6, the “IFN-γ EC50, PBMC reactivation assay” value turned out to be 34 nM; the “IFN-γ EC75, PBMC reactivation assay” value is 64 nM; the “IL-2 EC50, PBMC reactivation assay” value turned out to be 20 nM; the “IL-2 EC75, PBMC reactivation assay” value turned out to be 39 nM. For the same molecule, the “IL-17 EC50, PBMC reactivation assay” value came to 27 nM and the “IL-17 EC75, PBMC reactivation assay” value stood at 52 nM.

A further experiment has the same target. The experiment in a line: competition with DyL650-PD-L1 for binding to cell surface human PD-1 (CHO), flow cytometry.
On to B1, for which the half-inhibitory concentration (IC50) is more than 100 nM.

The molecule B2 came in with a concentration for half-maximal inhibition (IC50) of more than 100 nM.

Molecule B3 returned an IC50 of more than 100 nM.

Take B4: the IC50 is more than 100 nM.

Take B5: the IC50 was more than 100 nM.

With B6, the IC50 was more than 100 nM.

For the next experiment the target is unchanged. The experiment in a line: cell-based or functional assay. This is another data set of the same source.
Turning to B1, the “IL-2 EC50, human whole blood assay” value was determined as 8.3 nM; the “hIFN-γ EC50, human whole blood assay” value came out at 5.9 nM; the “hIL-17 EC50, human whole blood assay” value stood at 7.2 nM.

Consider B2, for which the “IL-2 EC50, human whole blood assay” value worked out at 4 nM; the “hIFN-γ EC50, human whole blood assay” value came to 4.1 nM; the “hIL-17 EC50, human whole blood assay” value turned out to be 3.6 nM.

Turning to B5, the “IL-2 EC50, human whole blood assay” value is 8.4 nM; the “hIFN-γ EC50, human whole blood assay” value was 7.6 nM; the “hIL-17 EC50, human whole blood assay” value came out at 8.9 nM.

For the molecule B6, the “IL-2 EC50, human whole blood assay” value came to 10.2 nM; the “hIFN-γ EC50, human whole blood assay” value was found to be 9.2 nM; the “hIL-17 EC50, human whole blood assay” value amounted to 9.9 nM.
